# Test results taken from PMC12221741, “WT EGFR and the oncogenic mutant EGFR (L858R) employ distinct mechanisms for export from the endoplasmic reticulum, a process critical for their activation” (The Journal of Biological Chemistry, 2025).
# No end group written: not given here.
# B1: synthetic polyR peptide of EGFR (RRRHIVRKRTLRRC) (peptide)
# peptide: RRRHIVRKRTLRRC(Sepharose 6B)
# notes: EGFR, juxtamembrane region of the cytosolic domain, amino acid number 669-681; added C-terminal cysteine residue used for coupling to the beads; also called polyR peptides; source: synthetic peptide, bought: GenScript
# Target: T1, His-tagged SAR1A^(Δ2–17, H79G) (human, UniProt Q9NR31 1-198, Δ2–17 | H79G)
# T1 construct: SAR1A, human, GTPase-defective H79G, N-terminal helix (residues 2-17) deleted; also called SAR1A^(Δ2–17, H79G)-His; His-tagged SAR1A(H79G) deleted of its N-terminal helix; source: purified, as described previously
# Experiment: pull-down; peptide-binding assay: polyR peptide coupled through its C-terminal cysteine to thiopyridone-Sepharose 6B beads (5 nmol peptide); 2 μg purified His-tagged SAR1A preincubated with 500 μM GTPγS; HK buffer (100 mM KCl, 20 mM Hepes, pH 7.2), 1 h at 4 °C; immunoblot
# Settings: both partners purified
# T1 sequence (Q9NR31 other isoform, or with tags, fused parts or gaps Δ2–17 | H79G | Δ2–17 | H79G | H79G H79G): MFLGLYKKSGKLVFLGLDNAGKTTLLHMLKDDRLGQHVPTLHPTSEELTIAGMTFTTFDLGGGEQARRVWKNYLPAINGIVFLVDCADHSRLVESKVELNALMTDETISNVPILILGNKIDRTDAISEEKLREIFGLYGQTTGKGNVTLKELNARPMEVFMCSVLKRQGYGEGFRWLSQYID
binder,measurement,value
B1,binding result,binds
